Tested on: MS2 coat protein
Experiment: apparent KD of MS2 coat protein; designed switch direction (-1 OFF switch, 1 ON switch): 1; higher = weaker reporter binding
Outline: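 Designed RNA switches with common flanks were made on Illumina chips by stalled E. coli RNA polymerase. Titration with SNAP-549-labelled MS2 coat protein doubled from 0.7 or 1.5 nM up to 3 µM. Apparent KD is each design's median over clusters after curve-fitting normalised fluorescence.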

[1] = Eterna round: R95, input ligand: FMN 200 uM
[2] = Eterna round: R95, input ligand: microRNA oligo, concentration not stated
[3] = Eterna round: R95, input ligand: none
[4] = input ligand: microRNA oligo, concentration not stated

With “GAAGGAUGAGCGUAGGAUAUAGGAGGAGUGACAUGAGGAUCACCCAUGUAGUAGGAGGGAGGGUACUAGAAGGACGAGGAAGAAG [JR_SS2_Sub067] (puzzle: Same State 2)” the “apparent KD of MS2 coat protein” value [1] was 39.7 nM, the “apparent KD of MS2 coat protein” value [2] was 49.3 nM and the “apparent KD of MS2 coat protein” value [3] was 51.5 nM.

In the case of “GGCAAUAUCACAGGAUAUUGGAAAGGAAGUGUACAAGAAGGGUGAUAGGGCCUCAGCAACAUGAGGAUCACCCAUGUACUGAGC [PowerStrip SSNG 1.10] (Eterna round: R96, puzzle: Same State NG 1)”, the “apparent KD of MS2 coat protein” value (input ligand: FMN 200 uM) was 62.6 nM, the “apparent KD of MS2 coat protein” value [4] was 13.5 nM and the “apparent KD of MS2 coat protein” value (input ligand: none) was 40.8 nM.

For “GCUCGACGUAUGGCCUACAUGAGGAUCACCCAUGUGAUUGGGCAGGAUAUCUAGAUGCAGGAUGUAGAGAAGGGCCCGUCGAGC [SameState NG3 #47] (Eterna round: R96, puzzle: Same State NG 3)”, the “apparent KD of MS2 coat protein” value (input ligand: FMN 200 uM) was 393 nM, the “apparent KD of MS2 coat protein” value [4] was 92 nM and the “apparent KD of MS2 coat protein” value (input ligand: none) was 230 nM.

For “UUAUUAUUUACAUGAGGAUCACCCAUGUUUUUAUGUCAGAGAUAGGAUAUAGAAGUCUCGUUUUACUAGAAGGAUCUUUUUAUU [JR_SSNG3_Sub083] (Eterna round: R96, puzzle: Same State NG 3)”, the “apparent KD of MS2 coat protein” value (input ligand: FMN 200 uM) was 21.2 nM, the “apparent KD of MS2 coat protein” value [4] was 16.7 nM and the “apparent KD of MS2 coat protein” value (input ligand: none) was 22.8 nM.

In the case of “AGUUGUAAUACAGGAUAUAUAUUAUUUUUAUUUAUAGAAGGGUAAUCACAUGAGGAUCACCCAUGUAUAUACGAGGAAGAAGAG [JMF's solution 2] (Eterna round: R96, puzzle: Same State NG 1)”, the “apparent KD of MS2 coat protein” value [4] was 194 nM.

With “AGCUAGUACCAAGGAUAUACGAACAUGAGGAUCACCCAUGUAUACAUGGUUUAAUGAGACUACAUGUAGAAGGUGGUACUAGCA [SameState NG2 #12] (Eterna round: R96, puzzle: Same State NG 2)” the “apparent KD of MS2 coat protein” value (input ligand: FMN 200 uM) was 387 nM, the “apparent KD of MS2 coat protein” value [4] was 338 nM and the “apparent KD of MS2 coat protein” value (input ligand: none) was 538 nM.

With “UGGAUCUAGGCUUGCCUGGGUCCAUGUUGACAUGAGGAUCACCCAUGUGUAUUUUUUAAGCUUUUUGUUUGUCAACA [JL A Humble Attempt mod 6] (puzzle: Sensor for hsa-mir-208a)” the “apparent KD of MS2 coat protein” value [1] was 42.4 nM, the “apparent KD of MS2 coat protein” value [2] was 13.2 nM and the “apparent KD of MS2 coat protein” value [3] was 42.5 nM.

In the case of “AUUAUCUAUGCAGGAUAUGAUUAACAUGAGGAUCACCCAUGUGGUGUUGUGAGUAAGGAGAGUGAUCAGAAGGGCAUUUUUUUU [JMF's solution 65] (Eterna round: R96, puzzle: Same State NG 2)”, the “apparent KD of MS2 coat protein” value (input ligand: FMN 200 uM) was 875 nM, the “apparent KD of MS2 coat protein” value [4] was 370 nM and the “apparent KD of MS2 coat protein” value (input ligand: none) was 566 nM.

With “GGUAUCUCCCGUGAGGAUAUGCGGCGUAGAACAUGAGGAUCACCCAUGUCCUUCGAAUGGGUUACGCAGAAGGCACGACGGUACC [Robot Leg #2] (puzzle: Same State 2)” the “apparent KD of MS2 coat protein” value [2] was 24.5 nM.

With “AGUUGUGGAAAACUAUAGCAAAAGUAUGUACAUGAGGAUCACCCAUGUCAUGUACAAGCUUUUUGCUCGUCUUAAAA [ak 4 mod of one Eli's designs.] (puzzle: Sensor for hsa-mir-208a)” the “apparent KD of MS2 coat protein” value [1] was 23 nM, the “apparent KD of MS2 coat protein” value [2] was 21 nM and the “apparent KD of MS2 coat protein” value [3] was 23.3 nM.

“UGAAUGGUGAUAGGAUAUACAUGAGGAAUCCUCGUAGAAGGAUCAUGACAUGAGGAUCACCCAUGUAGCCGUCCGUAGACGGCA [JL SSNG1 1.22] (Eterna round: R96, puzzle: Same State NG 1)” was tested, and the “apparent KD of MS2 coat protein” value (input ligand: FMN 200 uM) was 140 nM, the “apparent KD of MS2 coat protein” value [4] was 22.1 nM and the “apparent KD of MS2 coat protein” value (input ligand: none) was 351 nM.

With “UCUUGGUUUUUGCUCGUUUUUUGUGUUGAACAUGAGGAUCACCCAUGUAUUGUACGGUCCAAUUUAGUAAUGGUCCG [JMF 26] (puzzle: Sensor for hsa-mir-208a)” the “apparent KD of MS2 coat protein” value [1] was 25.4 nM, the “apparent KD of MS2 coat protein” value [2] was 13.2 nM and the “apparent KD of MS2 coat protein” value [3] was 23.6 nM.

With “GGAGCCGGUACUGAGGAUAUUCAUAUUAAAACAUGAGGAUCACCCAUGUAGGCCAGAAGGCCUUGGGAGAAGGCAGGCCAGCUCG [Atgexeedri - 4] (puzzle: Same State 2)” the “apparent KD of MS2 coat protein” value [1] was 20.2 nM, the “apparent KD of MS2 coat protein” value [2] was 270 nM and the “apparent KD of MS2 coat protein” value [3] was 458 nM.

In the case of “AUAAAACAUGAGGAUCACCCAUGUCAACAAAGAUGAGGAUAUGUACAGACUUCGGUCUGUACAGAAGGCAUAUAAU [salish99_ss1_r3_099] (puzzle: Same State 1)”, the “apparent KD of MS2 coat protein” value [1] was 15.4 nM, the “apparent KD of MS2 coat protein” value [2] was 15.2 nM and the “apparent KD of MS2 coat protein” value [3] was 13.9 nM.

With “AGAGAACAUGAGGAUCACCCAUGUGGGAGAAACAUAGGAUAUAGGAGAGAGAGGGAGGAGCUAGAAGGAUGAUGGA [JR_SS1_Sub082] (puzzle: Same State 1)” the “apparent KD of MS2 coat protein” value [1] was 80.5 nM, the “apparent KD of MS2 coat protein” value [2] was 91.1 nM and the “apparent KD of MS2 coat protein” value [3] was 105 nM.

“GACAAUCUAUCUCAGGAUAUCAUGUCAAAGACAUGAGGAUCACCCAUGUACCAGGAAACUGGUUAUGAGAAGGGAGAUAGAUUGG [Mat - Same State 2 - Mod - D27] (puzzle: Same State 2)” was tested, and the “apparent KD of MS2 coat protein” value [1] was 179 nM, the “apparent KD of MS2 coat protein” value [2] was 15.7 nM and the “apparent KD of MS2 coat protein” value [3] was 5660 nM.

With “UUAAAGAAGUAAGGAUAUACAUGAGGAUCACUCGUAGAAGGUACUAAACAUGAGGAUCACCCAUGUACCGGUCCGUAGACUGGA [Mat - Same State NG 1 - JL mod - D2] (Eterna round: R96, puzzle: Same State NG 1)” the “apparent KD of MS2 coat protein” value (input ligand: FMN 200 uM) was 960 nM, the “apparent KD of MS2 coat protein” value [4] was 248 nM and the “apparent KD of MS2 coat protein” value (input ligand: none) was 483 nM.

In the case of “UAAAGCGACGUAGGAUAUCCUCUACAUGCGUAAGGAGAAGGAUGCGCAACAUGAGGAUCACCCAUGUAAAACCAGCACUGCUGG [Isaerte] (Eterna round: R96, puzzle: Same State NG 1)”, the “apparent KD of MS2 coat protein” value (input ligand: FMN 200 uM) was 71.9 nM, the “apparent KD of MS2 coat protein” value [4] was 22.5 nM and the “apparent KD of MS2 coat protein” value (input ligand: none) was 36.7 nM.

With “UGUUAGUAGUGAGGAUAUACAUACACCUUACAUGAGGAUCACCCAUGUUUUAAUAUUGAUAGUUAGUAGAAGGCACAUGAUUAU [JR_SSNG2_Sub043] (Eterna round: R96, puzzle: Same State NG 2)” the “apparent KD of MS2 coat protein” value (input ligand: FMN 200 uM) was 22.1 nM, the “apparent KD of MS2 coat protein” value [4] was 35.8 nM and the “apparent KD of MS2 coat protein” value (input ligand: none) was 45.7 nM.

With “UGGAUCUAGGCUUGCCUGGGUCCAUGUUGACAUGAGGAUCACCCAUGUGUAUUUUUUUUGCUUUUUGUUUGUCAACU [JL A Humble Attempt mod 11] (puzzle: Sensor for hsa-mir-208a)” the “apparent KD of MS2 coat protein” value [1] was 25.2 nM, the “apparent KD of MS2 coat protein” value [2] was 12.7 nM and the “apparent KD of MS2 coat protein” value [3] was 26.5 nM.

For “UAGCGCUGUCGAGAGGAUAUGCGGUGAUGGACAUGAGGAUCACCCAUGUUAGCGAUAGCAUUACGGUAGAAGGCUCUACAGCUGC [salish99_ss2_r3_092] (puzzle: Same State 2)”, the “apparent KD of MS2 coat protein” value [2] was 23.2 nM.

For “UGGUACAUGGGAGGAUAUCUCAUGGAGACAUGAGGAUCACCCAUGUAGAUGGGCGGUAACGCCGGAGAGAAGGCCCAUGUACCU [JL SSNG1 3.70] (Eterna round: R96, puzzle: Same State NG 2)”, the “apparent KD of MS2 coat protein” value (input ligand: FMN 200 uM) was 29.2 nM, the “apparent KD of MS2 coat protein” value [4] was 41.6 nM and the “apparent KD of MS2 coat protein” value (input ligand: none) was 58.1 nM.

In the case of “AUACUCAUGUAAGGAUAUGCAGCCGAAACGGCUGCAGAAGGUACUAUAAUACAUGAGGAUCACCCAUGUCAAAAUUAUUUAGUU [Mat - Same State NG 1 - JL mod - D99] (Eterna round: R96, puzzle: Same State NG 1)”, the “apparent KD of MS2 coat protein” value (input ligand: FMN 200 uM) was 19.5 nM, the “apparent KD of MS2 coat protein” value [4] was 21.9 nM and the “apparent KD of MS2 coat protein” value (input ligand: none) was 22.3 nM.

In the case of “GCUCGAUGAGCUGUUUACAUGAGGAUCACCCAUGUAGAUGCGGAGGAUAUUUACGUGCUUUAUGUAGAGAAGGCCGUAUCGAGC [SameState NG3 #80] (Eterna round: R96, puzzle: Same State NG 3)”, the “apparent KD of MS2 coat protein” value (input ligand: FMN 200 uM) was 14 nM, the “apparent KD of MS2 coat protein” value [4] was 24.5 nM and the “apparent KD of MS2 coat protein” value (input ligand: none) was 24.1 nM.

“UCGGGCGUACUUGCUGACAUGAGGAUCACCCAUGUAAUUGGGAAGGAUAUGGUUCCGUUUCGGUUCCAGAAGGUCCUGGGUGCU [salish99_SSNG3_r04_312] (Eterna round: R96, puzzle: Same State NG 3)” was tested, and the “apparent KD of MS2 coat protein” value (input ligand: FMN 200 uM) was 819 nM, the “apparent KD of MS2 coat protein” value [4] was 331 nM and the “apparent KD of MS2 coat protein” value (input ligand: none) was 443 nM.

In the case of “AUUAAACAUGAGGAUCACCCAUGUCAACAAAGUCGAGGAUAUGGGCAAAUAAAUUAAGAACCAGAAGGCGAAUAAU [salish99_ss1_r3_057] (puzzle: Same State 1)”, the “apparent KD of MS2 coat protein” value [2] was 266 nM.

For “GGAAUAUUUACAGGAUAUGAUUUGUAAAUUCGAUCAGAAGGGUAGAUGUCUUACACGAUUUGUUACAUGAGGAUCACCCAUGUU [SameState NG1 #10] (Eterna round: R96, puzzle: Same State NG 1)”, the “apparent KD of MS2 coat protein” value (input ligand: FMN 200 uM) was 31 nM, the “apparent KD of MS2 coat protein” value [4] was 81.9 nM and the “apparent KD of MS2 coat protein” value (input ligand: none) was 86.3 nM.

For “AUUUUAAAUGCAGGAUAUGAUUAACAUGAGGAUCACCCAUGUGGUGUUGUGAGUAAGGAGAGUGAUCAGAAGGGCAUUUUUUUU [JMF's solution 95] (Eterna round: R96, puzzle: Same State NG 2)”, the “apparent KD of MS2 coat protein” value (input ligand: FMN 200 uM) was 748 nM, the “apparent KD of MS2 coat protein” value [4] was 546 nM and the “apparent KD of MS2 coat protein” value (input ligand: none) was 714 nM.

Source: the supplement of paper PMC9170038
